Reference: the supplement of paper PMC10126150
± gives the standard deviation of the averaged measurements.

These sequences were tested on ATP (assay: switch fluorescence ratio, 500 uM ATP over buffer (Cy3 cluster intensity, sum of 5 cycles each) (fold (ratio)); higher = stronger signal-on switching upon ATP binding; sequences stand for … in TCGTCGGCAGCGTCAGATGTGTATAAGAGACAGTTTTTTTTTTTTTTTTTTTTTTTTT…TC). Settings: aptamer strand: ATP DNA aptamer (quencher-CACCTGGGGGAGTATTGCGGAGGAAGG + anchor), 100 nM annealed; ATP concentration: 500 uM.
How it was run: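 Exposure to 500 uM ATP lasted 15 min at 22 °C before imaging, and a selection-buffer image was taken beforehand, for Cy3-labelled switching-strand clusters on a modified Illumina MiSeq flow-cell annealed to 100 nM quencher-labelled ATP aptamer. Five buffer/ATP cycles were run with NaOH stripping and re-annealing between them. The fluorescence ratio per cluster is summed target-cycle over summed buffer-cycle Cy3 intensity, averaged per switch-domain sequence. Clusters outside 100-1000 RFU were excluded.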
With CTCGGAACCT the switch fluorescence ratio was 1.84 ± 0.22.
With TGATTTGTAT the switch fluorescence ratio was 0.968 ± 0.018.
With CATTCGTCGA the switch fluorescence ratio was 1.2 ± 0.04.
GCTGGGCCGA gave a switch fluorescence ratio of 1.01 ± 0.036.
AGGTTTTTCG gave a switch fluorescence ratio of 1.03 ± 0.03.
TTGTTTACTT gave a switch fluorescence ratio of 1.04 ± 0.061.
In the case of ATATGAGGCG, the switch fluorescence ratio is reported as 1.05 ± 0.042.
Work on ATGAAAAAAA yielded a switch fluorescence ratio of 0.976 ± 0.12.
AAGAGTATCT was tested, and the switch fluorescence ratio was 1.01 ± 0.013.
TTTTGGAGGG was tested, and the switch fluorescence ratio was 1.01 ± 0.034.
In the case of CCGTTACATG, the switch fluorescence ratio is reported as 1.05 ± 0.017.
In the case of ATAGCCGTGC, the switch fluorescence ratio is reported as 1.017 ± 0.0054.
Sequence TGCTTTTACG has a switch fluorescence ratio of 1.04 ± 0.064.
With AATTCAACAG the switch fluorescence ratio was 1.01 ± 0.03.
For ATTGAATGTA, the switch fluorescence ratio was 0.98 ± 0.016.
CGGCTTGTG showed a switch fluorescence ratio of 0.99726 ± 0.00036.
Sequence GGGGGCCGGT has a switch fluorescence ratio of 1.01 ± 0.058.
In the case of TGAGATTCCT, the switch fluorescence ratio is reported as 1.09 ± 0.034.
CGCAAAAAGT showed a switch fluorescence ratio of 1.0219 ± 0.00086.
CAGGTTCACG gave a switch fluorescence ratio of 1.02 ± 0.032.
GGATGGTATG showed a switch fluorescence ratio of 1.01 ± 0.015.
For AATTGATTGT, the switch fluorescence ratio was 0.993 ± 0.051.
Work on TGTGGGGAAT yielded a switch fluorescence ratio of 1.04 ± 0.075.
Work on TATATCAGTT yielded a switch fluorescence ratio of 1.007 ± 0.0087.
For TTTTATCGGG, the switch fluorescence ratio was 0.971 ± 0.016.
Work on TATAAGTGGT yielded a switch fluorescence ratio of 0.992 ± 0.023.
ATAACGCGGT showed a switch fluorescence ratio of 0.9967 ± 0.0047.
CGTAGACGAA showed a switch fluorescence ratio of 0.974 ± 0.0094.
GGGGGAGAAT showed a switch fluorescence ratio of 0.986 ± 0.025.
Work on GGCTTGAAGG yielded a switch fluorescence ratio of 1.03 ± 0.032.
Work on CAATTGCTGT yielded a switch fluorescence ratio of 1.01 ± 0.012.
Sequence AAAGTTTGAC has a switch fluorescence ratio of 1 ± 0.035.
In the case of GGTGTAGGGA, the switch fluorescence ratio is reported as 0.992 ± 0.013.
Sequence AAAGGGAAGG has a switch fluorescence ratio of 1.01 ± 0.018.
With CTGGTAGGGA the switch fluorescence ratio was 1.06 ± 0.044.
In the case of GGGTGAAGGC, the switch fluorescence ratio is reported as 0.971 ± 0.058.
TCCCCGCGCT gave a switch fluorescence ratio of 1.25 ± 0.37.
TAAGGCGTAG gave a switch fluorescence ratio of 1.08 ± 0.061.
Work on TACTAAGAAT yielded a switch fluorescence ratio of 2.35 ± 1.9.
ATTTCAGATA gave a switch fluorescence ratio of 1.01 ± 0.02.
For TAGGGAATTG, the switch fluorescence ratio was 1.01 ± 0.011.
Sequence ACTAAAATAT has a switch fluorescence ratio of 1.021 ± 0.0093.
For TCGAAGATGT, the switch fluorescence ratio was 0.996 ± 0.019.
GGATTGGACG was tested, and the switch fluorescence ratio was 0.976 ± 0.016.
Sequence TGGGCGTAG has a switch fluorescence ratio of 0.993 ± 0.011.
AGGGGGCTGC showed a switch fluorescence ratio of 0.995 ± 0.023.
TTTTAAAACG gave a switch fluorescence ratio of 1.04 ± 0.084.
AGTTGTGAGG showed a switch fluorescence ratio of 1.01 ± 0.026.
Sequence CGACGACAGG has a switch fluorescence ratio of 1.35 ± 0.024.
Work on ATGGACGTTT yielded a switch fluorescence ratio of 0.967 ± 0.048.
For TATTCACAAG, the switch fluorescence ratio was 1.024 ± 0.0027.
Work on ACATCAAGGG yielded a switch fluorescence ratio of 1.06 ± 0.055.
With GAGCCACCAC the switch fluorescence ratio was 1.051 ± 0.002.
Work on GGTTGGATCG yielded a switch fluorescence ratio of 0.9987 ± 0.0047.
For TCTGGTATGA, the switch fluorescence ratio was 1.01 ± 0.015.
Sequence TCGGTGATGG has a switch fluorescence ratio of 0.988 ± 0.021.
AGATGGTCAA showed a switch fluorescence ratio of 0.967 ± 0.02.
AGTCTATCTG showed a switch fluorescence ratio of 0.964 ± 0.03.
TTTGTAGCAG gave a switch fluorescence ratio of 1.09 ± 0.028.
GCCAGGGGGA was tested, and the switch fluorescence ratio was 1.09 ± 0.12.
Sequence TGGGACATGC has a switch fluorescence ratio of 0.987 ± 0.0088.
With AAGAGGGACT the switch fluorescence ratio was 1.03 ± 0.021.
In the case of AGGGGGGCGG, the switch fluorescence ratio is reported as 0.992 ± 0.039.
With TAGCTGACTG the switch fluorescence ratio was 1.02 ± 0.04.
In the case of TTTTAGAGT, the switch fluorescence ratio is reported as 0.988 ± 0.024.
GAGTGTACGT showed a switch fluorescence ratio of 1.01 ± 0.052.
With TTATTGGACT the switch fluorescence ratio was 1.02 ± 0.019.
Sequence CATGGGGTGC has a switch fluorescence ratio of 1.04 ± 0.024.
Sequence TACCAGGGGT has a switch fluorescence ratio of 0.9909 ± 0.0039.
In the case of GGGGTCAACG, the switch fluorescence ratio is reported as 0.963 ± 0.035.
Work on CTTTACTAGG yielded a switch fluorescence ratio of 1.016 ± 0.0052.
Work on TAGTTTGGGA yielded a switch fluorescence ratio of 1.01 ± 0.03.
Work on CAGAATGGTG yielded a switch fluorescence ratio of 0.978 ± 0.028.
ACACTACGTC was tested, and the switch fluorescence ratio was 1.51 ± 0.056.
Sequence TAAAATTGGG has a switch fluorescence ratio of 0.989 ± 0.014.
Work on TTCAGAGCTT yielded a switch fluorescence ratio of 1 ± 0.035.
With AGGCGTTGGG the switch fluorescence ratio was 1.01 ± 0.015.
In the case of GTGTAAGCAG, the switch fluorescence ratio is reported as 0.995 ± 0.01.
TTGGAGTGCT showed a switch fluorescence ratio of 1.04 ± 0.045.
In the case of GGGATCCTCC, the switch fluorescence ratio is reported as 1.027 ± 0.006.
For GGAAGTGTGT, the switch fluorescence ratio was 0.949 ± 0.021.
For TATCACATTT, the switch fluorescence ratio was 1.02 ± 0.018.
Work on TAAAGGCGAG yielded a switch fluorescence ratio of 1.02 ± 0.027.
AAATTACATT gave a switch fluorescence ratio of 1.02 ± 0.021.
Sequence TAAGGACGAC has a switch fluorescence ratio of 1.02 ± 0.026.
AATGCTAAGA showed a switch fluorescence ratio of 1.01 ± 0.044.
AGGGTCGCCT gave a switch fluorescence ratio of 1 ± 0.04.
In the case of CGCACCCTTT, the switch fluorescence ratio is reported as 1.093 ± 0.0056.
With GGATCTAGGG the switch fluorescence ratio was 0.981 ± 0.018.
Sequence ATCATCGCTA has a switch fluorescence ratio of 1.094 ± 0.0084.
With TATTATGTAT the switch fluorescence ratio was 0.982 ± 0.031.
TCGAGGGGAA showed a switch fluorescence ratio of 1.13 ± 0.15.
Work on AATTTGTAGA yielded a switch fluorescence ratio of 0.9996 ± 0.0047.
CCCGGGGGT showed a switch fluorescence ratio of 1.13 ± 0.2.
For GTTGGGGAGG, the switch fluorescence ratio was 1.01 ± 0.035.
Work on AAAAAGGCTA yielded a switch fluorescence ratio of 1.03 ± 0.017.
TGCAACGAGG was tested, and the switch fluorescence ratio was 0.998 ± 0.035.
GGTTTCTGCT was tested, and the switch fluorescence ratio was 1.02 ± 0.03.
Work on GTGTTGTTGG yielded a switch fluorescence ratio of 0.986 ± 0.019.
In the case of TTTCCCAAAA, the switch fluorescence ratio is reported as 1.04 ± 0.08.
